Experimental data reported in publication PMC10978839.

Experiments:
[1] = confocal colocalisation with calreticulin/GM130; membrane trafficking; conditions: glycan lost; control: SEMA7A-WT
[2] = immunofluorescence intensity, HN6 and HN30; conditions: glycan lost; control: untreated and O-Glycosidase-treated cells
cell viability = conditions: glycan lost; control: SEMA7A-WT cells
ELISA of secreted SEMA7A = conditions: glycan lost; control: SEMA7A-WT
[3] = IL-2 ELISA after coculture; conditions: glycan lost; control: SEMA7A-WT tumor cells
[4] = real-time PCR of PD-L1 isoforms; conditions: glycan lost; control: SEMA7A-WT cells
[5] = CHX chase immunoblot, turnover rate; conditions: glycan lost
[6] = cleaved Caspase-3 and proliferation; conditions: glycan lost; control: SEMA7A-WT cells
[7] = non-reducing vs reducing western blot; conditions: glycan lost; control: SEMA7A-WT
[8] = coculture, Annexin V/PI flow cytometry; conditions: glycan lost; control: SEMA7A-WT tumor cells
[9] = flow cytometry of PD-1, LAG3, CTLA4, TIM3; conditions: glycan lost; control: SEMA7A-WT tumor cells
[10] = CRT expression and nuclear HMGB1 with doxorubicin; conditions: glycan lost; control: SEMA7A-WT cells
[11] = CHX plus MG132/HCQ/BTZ, immunoblot; degradation pathway; conditions: glycan lost; control: SEMA7A-WT

B1: SEMA7A: N258Q (protein)
parent chain: MTPPPPGRAAPSAPRARVPGPPARLGLPLRLRLLLLLWAAAASAQGHLRSGPRIFAVWKGHVGQDRVDFGQTEPHTVLFHEPGSSSVWVGGRGKVYLFDFPEGKNASVRTVNIGSTKGSCLDKRDCENYITLLERRSEGLLACGTNARHPSCWNLVNGTVVPLGEMRGYAPFSPDENSLVLFEGDEVYSTIRKQEYNGKIPRFRRIRGESELYTSDTVMQNPQFIKATIVHQDQAYDDKIYYFFREDNPDKNPEAPLNVSRVAQLCRGDQGGESSLSVSKWNTFLKAMLVCSDAATNKNFNRLQDVFLLPDPSGQWRDTRVYGVFSNPWNYSAVCVYSLGDIDKVFRTSSLKGYHSSLPNPRPGKCLPDQQPIPTETFQVADRHPEVAQRVEPMGPLKTPLFHSKYHYQKVAVHRMQASHGETFHVLYLTTDRGTIHKVVEPGEQEHSFAFNIMEIQPFRRAAAIQTMSLDAERRKLYVSSQWEVSQVPLDLCEVYGGGCHGCLMSRDPYCGWDQGRCISIYSSERSVLQSINPAEPHKECPNPKPDKAPLQKVSLAPNSRYYLSCPMESRHATYSWRHKENVEQSCEPGHQSPNCILFIENLTAQQYGHYFCEAQEGSYFREAQHWQLLPEDGIMAEHLLGHACALAASLWLGVLPTLTLGLLVH
Question: Which localisation_or_trafficking [1] does the source give for B1 here?
Answer: no change

B2: SEMA7A: N157Q (protein)
parent chain: B1 parent chain
Question: With B2 as the protein, how does the localisation_or_trafficking [1] read?
Answer: no change

B3: SEMA7A: PNGase F (protein)
parent chain: B1 parent chain
Question: Which “other: immunofluorescence detection by antibody” value [2] does the source give for B3 here?
Answer: increases

B4: SEMA7A: 5NQ (protein)
parent chain: B1 parent chain
Question: For B4, which “other: sensitivity to doxorubicin” value (cell viability) is on record?
Answer: increases

Question: And the expression_or_secretion (ELISA of secreted SEMA7A)?
Answer: no change

Question: And the “other: IL-2 release by cocultured Jurkat cells” value [3]?
Answer: increases

Question: And the “other: PD-L1 alternative splicing” value [4]?
Answer: changes

Question: And the degradation_or_half_life ([5]; control: SEMA7A-WT)?
Answer: increases

Question: And the “other: sensitivity to EGFR inhibitors” value [6]?
Answer: increases

Question: And the oligomerisation [7]?
Answer: abolishes

Question: And the “other: susceptibility to CD8+ T-cell killing” value [8]?
Answer: increases

Question: What about the “other: exhaustion of cocultured CD8+ T cells” value [9] of the same protein?
Answer: decreases

Question: And the “other: immunogenic cell death markers” value [10]?
Answer: increases

Question: And the degradation_or_half_life [11]?
Answer: changes

Question: And the localisation_or_trafficking [1]?
Answer: decreases

B5: SEMA7A: 3NQ (protein)
parent chain: B1 parent chain
Question: With B5 as the protein, how does the oligomerisation [7] read?
Answer: no change

B6: SEMA7A: N105Q (protein)
parent chain: B1 parent chain
Question: For B6, which localisation_or_trafficking [1] is on record?
Answer: no change

B7: SEMA7A: N602Q (protein)
parent chain: B1 parent chain
Question: Which localisation_or_trafficking [1] does the source give for B7 here?
Answer: no change

B8: SEMA7A: N330Q (protein)
parent chain: B1 parent chain
Question: With B8 as the protein, how does the localisation_or_trafficking [1] read?
Answer: no change

B9: SEMA7A: tunicamycin (protein)
parent chain: B1 parent chain
Question: For B9, which degradation_or_half_life ([5]; control: untreated (endogenous SEMA7A)) is on record?
Answer: increases
